The text below walks through data of the MegaScale stability set (Tsuboyama et al. 2023).

B1: 2K2A (parent)
chain: ELREAFRLYDKEGNGYISTDVMREILAELDETLSSEDLDAMIDEIDADGSGTVDFEEFMGVMT

This data set covers variants of B1. Description: folding stability dG (cDNA display proteolysis); higher = more stable. Particulars: PBS, room temperature.
In the case of ELREAFRLYDKEGNGYISTDVMREILAELDETLSSEDLDAMIDEIDQDGSGTVDFEEFMGVMT, the “folding stability dG” value turned out to be 1.93 kcal/mol.

Turning to ELREAFRLYDKEGNGYISTDVMREILAELDETLSSEDLDAMIDEIDVDGSGTVDFEEFMGVMT, the “folding stability dG” value turned out to be 1.91 kcal/mol.

Take ELREAFRLYDKEGNGYISTDVMREILAELDETLSSEDLDAMIDEIDSDGSGTVDFEEFMGVMT: the “folding stability dG” value was determined as 1.8 kcal/mol.

Turning to ELREAFRLYDKEGNGYISTDVMREILAELDETLSSEDLDAMIDEIDRDGSGTVDFEEFMGVMT, the “folding stability dG” value was found to be 2.06 kcal/mol.

With ELREAFRLYDKEGNGYISTDVMREILAELDETLSSEDLDAMIDEIDCDGSGTVDFEEFMGVMT, the “folding stability dG” value stood at 1.97 kcal/mol.

With ELREAFRLYDKEGNGYISTDVMREILAELDETLSSEDLDAMIDEIDIDGSGTVDFEEFMGVMT, the “folding stability dG” value was determined as 1.86 kcal/mol.

ELREAFRLYDKEGNGYISTDVMREILAELDETLSSEDLDAMIDEIDNDGSGTVDFEEFMGVMT: the “folding stability dG” value came to 1.62 kcal/mol.

In the case of ELREAFRLYDKEGNGYISTDVMREILAELDETLSSEDLDAMIDEIDEDGSGTVDFEEFMGVMT, the “folding stability dG” value was 1.4 kcal/mol.

On to ELREAFRLYDKEGNGYISTDVMREILAELDETLSSEDLDAMIDEIDWDGSGTVDFEEFMGVMT, for which the “folding stability dG” value was 1.96 kcal/mol.

As to ELREAFRLYDKEGNGYISTDVMREILAELDETLSSEDLDAMIDEIDYDGSGTVDFEEFMGVMT, the “folding stability dG” value turned out to be 1.62 kcal/mol.

Turning to ELREAFRLYDKEGNGYISTDVMREILAELDETLSSEDLDAMIDEIDPDGSGTVDFEEFMGVMT, the “folding stability dG” value was 1.92 kcal/mol.

On to ELREAFRLYDKEGNGYISTDVMREILAELDETLSSEDLDAMIDEIDFDGSGTVDFEEFMGVMT, for which the “folding stability dG” value came to 1.69 kcal/mol.

Regarding ELREAFRLYDKEGNGYISTDVMREILAELDETLSSEDLDAMIDEIDHDGSGTVDFEEFMGVMT, the “folding stability dG” value stood at 1.96 kcal/mol.

As to ELREAFRLYDKEGNGYISTDVMREILAELDETLSSEDLDAMIDEIDDDGSGTVDFEEFMGVMT, the “folding stability dG” value was determined as 1.06 kcal/mol.

Turning to ELREAFRLYDKEGNGYISTDVMREILAELDETLSSEDLDAMIDEIDGDGSGTVDFEEFMGVMT, the “folding stability dG” value was determined as 1.57 kcal/mol.

As to ELREAFRLYDKEGNGYISTDVMREILAELDETLSSEDLDAMIDEIDMDGSGTVDFEEFMGVMT, the “folding stability dG” value was found to be 1.64 kcal/mol.

For the variant ELREAFRLYDKEGNGYISTDVMREILAELDETLSSEDLDAMIDEIDKDGSGTVDFEEFMGVMT, the “folding stability dG” value stood at 2.2 kcal/mol.

ELREAFRLYDKEGNGYISTDVMREILAELDETLSSEDLDAMIDEIDLDGSGTVDFEEFMGVMT: the “folding stability dG” value was found to be 1.78 kcal/mol.

ELREAFRLYDKEGNGYISTDVMREILAELDETLSSEDLDAMIDESDADGSGTVDFEEFMGVMT: the “folding stability dG” value was 0.36 kcal/mol.

As for ELREAFRLYDKEGNGYISTDVMREILAELDETLSSEDLDAMIDEYDADGSGTVDFEEFMGVMT, the “folding stability dG” value came out at 1.05 kcal/mol.

In the case of ELREAFRLYDKEGNGYISTDVMREILAELDETLSSEDLDAMIDERDADGSGTVDFEEFMGVMT, the “folding stability dG” value was 0.158 kcal/mol.

Turning to ELREAFRLYDKEGNGYISTDVMREILAELDETLSSEDLDAMIDEWDADGSGTVDFEEFMGVMT, the “folding stability dG” value was determined as 1.32 kcal/mol.

For ELREAFRLYDKEGNGYISTDVMREILAELDETLSSEDLDAMIDEVDADGSGTVDFEEFMGVMT, the “folding stability dG” value amounted to 1.57 kcal/mol.

As to ELREAFRLYDKEGNGYISTDVMREILAELDETLSSEDLDAMIDETDADGSGTVDFEEFMGVMT, the “folding stability dG” value is 0.714 kcal/mol.

On to ELREAFRLYDKEGNGYISTDVMREILAELDETLSSEDLDAMIDEIDADRSGTVDFEEFMGVMT, for which the “folding stability dG” value is 1.95 kcal/mol.

With ELREAFRLYDKEGNGYISTDVMREILAELDETLSSEDLDAMIDEIDADESGTVDFEEFMGVMT, the “folding stability dG” value is 1.26 kcal/mol.

As to ELREAFRLYDKEGNGYISTDVMREILAELDETLSSEDLDAMIDEIDADLSGTVDFEEFMGVMT, the “folding stability dG” value amounted to 1.29 kcal/mol.

Take ELREAFRLYDKEGNGYISTDVMREILAELDETLSSEDLDAMIDEIDADPSGTVDFEEFMGVMT: the “folding stability dG” value came to 0.091 kcal/mol.

As for ELREAFRLYDKEGNGYISTDVMREILAELDETLSSEDLDAMIDEIDADQSGTVDFEEFMGVMT, the “folding stability dG” value was 1.77 kcal/mol.

As for ELREAFRLYDKEGNGYISTDVMREILAELDETLSSEDLDAMIDEIDADVSGTVDFEEFMGVMT, the “folding stability dG” value was found to be 0.799 kcal/mol.

As to ELREAFRLYDKEGNGYISTDVMREILAELDETLSSEDLDAMIDEIDADDSGTVDFEEFMGVMT, the “folding stability dG” value amounted to 1.42 kcal/mol.

With ELREAFRLYDKEGNGYISTDVMREILAELDETLSSEDLDAMIDEIDADFSGTVDFEEFMGVMT, the “folding stability dG” value was determined as 1.01 kcal/mol.

Turning to ELREAFRLYDKEGNGYISTDVMREILAELDETLSSEDLDAMIDEIDADTSGTVDFEEFMGVMT, the “folding stability dG” value was 0.928 kcal/mol.

With ELREAFRLYDKEGNGYISTDVMREILAELDETLSSEDLDAMIDEIDADMSGTVDFEEFMGVMT, the “folding stability dG” value amounted to 1.43 kcal/mol.

Turning to ELREAFRLYDKEGNGYISTDVMREILAELDETLSSEDLDAMIDEIDADCSGTVDFEEFMGVMT, the “folding stability dG” value turned out to be 1.71 kcal/mol.

Turning to ELREAFRLYDKEGNGYISTDVMREILAELDETLSSEDLDAMIDEIDADSSGTVDFEEFMGVMT, the “folding stability dG” value amounted to 1.63 kcal/mol.

As for ELREAFRLYDKEGNGYISTDVMREILAELDETLSSEDLDAMIDEIDADISGTVDFEEFMGVMT, the “folding stability dG” value came out at 0.499 kcal/mol.

Consider ELREAFRLYDKEGNGYISTDVMREILAELDETLSSEDLDAMIDEIDADYSGTVDFEEFMGVMT, for which the “folding stability dG” value stood at 1.04 kcal/mol.

As for ELREAFRLYDKEGNGYISTDVMREILAELDETLSSEDLDAMIDEIDADKSGTVDFEEFMGVMT, the “folding stability dG” value was 1.99 kcal/mol.

With ELREAFRLYDKEGNGYISTDVMREILAELDETLSSEDLDAMIDEIDADNSGTVDFEEFMGVMT, the “folding stability dG” value worked out at 1.84 kcal/mol.

On to ELREAFRLYDKEGNGYISTDVMREILAELDETLSSEDLDAMIDEIDADWSGTVDFEEFMGVMT, for which the “folding stability dG” value came to 0.635 kcal/mol.

Take ELREAFRLYDKEGNGYISTDVMREILAELDETLSSEDLDAMIDEIDADHSGTVDFEEFMGVMT: the “folding stability dG” value came out at 1.94 kcal/mol.

With ELREAFRLYDKEGNGYISTDVMREILAELDETLSSEDLDAMIDEIDADASGTVDFEEFMGVMT, the “folding stability dG” value amounted to 1.5 kcal/mol.
